Source: patent US20240116985A1, “STAPLED PEPTIDES AND METHODS THEREOF” (priority 2020, published 2024)
Starred links: 1 amine or outer side, 2 acyl side, 3 side chain; linkers in the order of their positions; H or OH if unused. Positions of bridges follow the written chain, without caps; N, C: chain ends. Non-standard residues stand in square brackets, D forms with d. Primed or numbered codes have the meaning given here. *: point of attachment. PyrS2″ = (S)-3-amino-1-((pent-4-en-1-yloxy)carbonyl)pyrrolidine-3-carboxylic acid (stapling residue), C=CCCCOC(=O)N1CC[C@@](N[*:1])(C(=O)[*:2])C1; B5(4) = 2,2-bis(4-pentenyl)glycine = 2-amino-2-(pent-4-en-1-yl)hept-6-enoic acid (stitching residue), C=CCCCC(CCCC=C)(N[*:1])C(=O)[*:2]; B5(5) = 2,2-bis(4-pentenyl)glycine, 2-amino-2-(pent-4-en-1-yl)hept-6-enoic acid (stitching residue), C=CCCCC(CCCC=C)(N[*:1])C(=O)[*:2]; PyrS2 = (S)-3-amino-1-((pent-4-en-1-yloxy)carbonyl)pyrrolidine-3-carboxylic acid, C=CCCCOC(=O)N1CC[C@@](N[*:1])(C(=O)[*:2])C1; (Me2diaminobutane)GlnR = N5-methyl-N5-(4-(methylamino)butyl)-L-glutamine, CN(CCCCN(C)[*:3])C(=O)CC[C@H](N[*:1])C(=O)[*:2]; (NMe2)GlnR″ = [NMe2]GlnR: N5,N5-dimethyl-L-glutamine, CN(C)C(=O)CC[C@H](N[*:1])C(=O)[*:2]; (NMe2)GlnR = N5,N5-dimethyl-L-glutamine, CN(C)C(=O)CC[C@H](N[*:1])C(=O)[*:2]; Phe(3-COOH) = N[C@@H](Cc1cccc(C(=O)O)c1)C(=O)O; Phe(2-CF3) = N[C@@H](Cc1ccccc1C(F)(F)F)C(=O)O; Phe(3-Br) = N[C@@H](Cc1cccc(Br)c1)C(=O)O; Phe(2-Cl) = N[C@@H](Cc1ccccc1Cl)C(=O)O; 2Nal = N[C@@H](Cc1ccc2ccccc2c1)C(=O)O; Bta = N[C@@H](Cc1csc2ccccc12)C(=O)O; Isobutyloxycarbonyl = CC(C)COC(=O)*; αAllylPro = C=CC[C@@]1(C(=O)O)CCCN1; tBuAla = CC(C)(C)C[C@H](N)C(=O)O; 3Thi = N[C@@H](Cc1ccsc1)C(=O)O; 2F3MeF″ = Phe derivative; Propioloyl = C#CC(=O)*; Aib = CC(C)(N)C(=O)O

What was measured:
[1] = target: Bcat-Halo (UniProt P35222); experiment: NanoBRET Abs IC50, HEK293 cells, Bcat-Halo / TCF4-Luc
Chain of Bcat-Halo (P35222 whole entry): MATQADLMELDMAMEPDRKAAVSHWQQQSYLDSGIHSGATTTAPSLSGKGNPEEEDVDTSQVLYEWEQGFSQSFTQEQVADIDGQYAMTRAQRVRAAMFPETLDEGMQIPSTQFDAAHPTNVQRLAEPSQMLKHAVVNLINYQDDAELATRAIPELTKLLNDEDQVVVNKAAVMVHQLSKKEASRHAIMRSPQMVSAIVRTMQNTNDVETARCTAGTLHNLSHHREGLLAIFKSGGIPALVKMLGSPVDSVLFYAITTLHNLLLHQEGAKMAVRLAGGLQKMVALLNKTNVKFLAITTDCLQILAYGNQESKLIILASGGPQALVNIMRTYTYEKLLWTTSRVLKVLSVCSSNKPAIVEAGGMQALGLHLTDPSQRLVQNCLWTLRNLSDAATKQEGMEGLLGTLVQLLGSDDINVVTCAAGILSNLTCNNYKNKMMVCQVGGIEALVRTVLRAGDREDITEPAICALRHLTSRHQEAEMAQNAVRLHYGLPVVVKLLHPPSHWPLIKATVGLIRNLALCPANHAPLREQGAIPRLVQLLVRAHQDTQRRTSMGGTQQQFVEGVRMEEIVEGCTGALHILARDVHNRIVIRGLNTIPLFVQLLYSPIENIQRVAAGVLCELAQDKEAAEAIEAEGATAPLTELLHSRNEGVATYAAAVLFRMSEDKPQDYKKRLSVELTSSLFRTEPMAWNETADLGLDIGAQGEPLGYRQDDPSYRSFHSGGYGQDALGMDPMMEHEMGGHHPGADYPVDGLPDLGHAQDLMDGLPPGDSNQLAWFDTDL

[2] = target: full-length beta-Catenin (Uniprot ID P35222) (Homo sapiens (Human)) (UniProt P35222); experiment: fluorescence polarization competition against 5FAM-TCF4(10-53), full-length beta-catenin
Target sequence in this assay (P35222 whole entry, one chain of several): as the sequence (P35222 whole entry) above

[3] = target: full-length beta-Catenin (Uniprot ID P35222) (Homo sapiens (Human)) (UniProt P35222); experiment: fluorescence polarization competition; full-length beta-catenin, competitor 5FAM-TCF4(10-53) probe
Target sequence in this assay (P35222 2-781 limits assumed): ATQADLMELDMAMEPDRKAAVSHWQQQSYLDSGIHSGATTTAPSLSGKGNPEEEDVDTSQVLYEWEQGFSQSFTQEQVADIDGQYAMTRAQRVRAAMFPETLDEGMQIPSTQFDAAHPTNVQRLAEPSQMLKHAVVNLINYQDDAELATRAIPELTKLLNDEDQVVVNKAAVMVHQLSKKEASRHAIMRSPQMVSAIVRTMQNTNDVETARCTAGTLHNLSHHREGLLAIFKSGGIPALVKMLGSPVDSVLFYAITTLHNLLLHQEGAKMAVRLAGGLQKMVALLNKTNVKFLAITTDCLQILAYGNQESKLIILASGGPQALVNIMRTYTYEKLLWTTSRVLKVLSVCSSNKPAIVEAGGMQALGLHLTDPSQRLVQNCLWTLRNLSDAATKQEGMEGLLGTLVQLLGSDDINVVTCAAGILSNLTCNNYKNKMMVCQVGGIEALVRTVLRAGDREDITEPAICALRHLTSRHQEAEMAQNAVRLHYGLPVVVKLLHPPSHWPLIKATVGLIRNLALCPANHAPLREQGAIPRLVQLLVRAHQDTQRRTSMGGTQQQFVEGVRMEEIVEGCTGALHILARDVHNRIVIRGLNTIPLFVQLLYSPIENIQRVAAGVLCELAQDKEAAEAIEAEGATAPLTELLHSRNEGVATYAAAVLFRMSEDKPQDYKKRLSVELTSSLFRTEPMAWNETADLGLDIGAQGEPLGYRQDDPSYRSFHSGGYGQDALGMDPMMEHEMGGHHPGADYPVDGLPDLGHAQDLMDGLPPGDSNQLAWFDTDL

[4] = target: B-cat-Halo (beta-catenin HaloTag NanoBRET construct expressed in HEK293 cells) (UniProt P35222); experiment: NanoBRET in HEK293 cells, Bcat-Halo / TCF4-Luc (competitor TCF4-Luc); absolute IC50
Chain of B-cat-Halo (beta-catenin HaloTag NanoBRET construct expressed in HEK293 cells) (P35222 whole entry): as the sequence (P35222 whole entry) above

Binder	IC50 [1] [nM]	IC50 [2] [nM]	IC50 [3] [nM]	IC50 [4] [nM]
Ac-[αAllylPro]D[tBuAla][B5(4)]D[Phe(3-COOH)][(NMe2)GlnR″]AFL[PyrS2″][2F3MeF″][Bta][(NMe2)GlnR″]-NH2 (staple 1-4, 4-11) [I-2300]	1200	6		
Ac-[αAllylPro]D[tBuAla][B5(4)]D[Phe(3-COOH)][(Me2diaminobutane)GlnR]AFV[PyrS2″][3Thi][Bta]A-NH2 (staple 1-4, 4-11) [I-2301]	> 20000	5		
Ac-[αAllylPro]D[tBuAla][B5(4)]D[Phe(3-COOH)][(NHEt)GlnR]AFV[PyrS2″][3Thi][Bta]A-NH2 (staple 1-4, 4-11) [I-2302]	2500	5		
Ac-[αAllylPro]D[tBuAla][B5(4)]D[Phe(3-COOH)][(NMe2)GlnR]AFV[PyrS2″][3Thi][Bta]A-NH2 (staple 1-4, 4-11) [I-2303]	1200	5		
Isobutyloxycarbonyl-[αAllylPro]D[tBuAla][B5(4)]D[Phe(3-COOH)]AAFL[PyrS2″][Phe(2-Cl)][Bta]A-NH2 (staple 1-4, 4-11) [I-2305]	> 20000	65		
Ac-[αAllylPro]D[tBuAla][B5(4)]D[Phe(3-COOH)]AAFL[PyrS2″][3Thi][Phe(3-Br)]Q-NH2 (staple 1-4, 4-11) [I-2307]	8900	16		
Ac-[αAllylPro]D[tBuAla][B5(4)]D[Phe(3-COOH)]QAFV[PyrS2″][3Thi][2Nal]A-NH2 (staple 1-4, 4-11) [I-2310]	8900	18		
Ac-[αAllylPro]D[tBuAla][B5(4)]D[Phe(3-COOH)]QAFV[PyrS2″][3Thi][RbMe2NapA]A-NH2 (staple 1-4, 4-11) [I-2312]	5200	5		
Ac-[αAllylPro]D[tBuAla][B5(4)]D[Phe(3-COOH)]QAFV[PyrS2″][3Thi][SbMe2NapA]A-NH2 (staple 1-4, 4-11) [I-2314]	> 20000	48		
Ac-[αAllylPro]D[tBuAla][B5(5)]D[Phe(3-COOH)]AAFL[PyrS2][Phe(2-CF3)][Bta]QL[dL]-NH2 (staple 1-4, 4-11) [I-2396]			187	8300
Ac-[αAllylPro]D[tBuAla][B5(5)]D[Phe(3-COOH)]AAFL[PyrS2][Phe(2-CF3)][Bta]QL[dT]-NH2 (staple 1-4, 4-11) [I-2397]			53	7800
Ac-[αAllylPro]D[tBuAla][B5(5)]D[Phe(3-COOH)]AAFL[PyrS2][Phe(2-CF3)][Bta]QAA-NH2 (staple 1-4, 4-11) [I-2399]			17	2800
Ac-[αAllylPro]D[tBuAla][B5(5)]D[Phe(3-COOH)]AAFL[PyrS2][Phe(2-CF3)][Bta]QFA-NH2 (staple 1-4, 4-11) [I-2400]			142	2500
Ac-[αAllylPro]D[tBuAla][B5(5)]D[Phe(3-COOH)]AAFL[PyrS2][Phe(2-CF3)][Bta]QVA-NH2 (staple 1-4, 4-11) [I-2401]			37	4400
propiolyl-[αAllylPro]D[tBuAla][B5(5)]DDAAFQ[PyrS2][3Thi][Bta]H-NH2 (staple 1-4, 4-11) [I-2402]			16	> 20000
Propioloyl-[αAllylPro]D[tBuAla][B5(5)]D[Phe(3-COOH)]AAFL[PyrS2″][Phe(2-Cl)][Bta]A-NH2 (staple 1-4, 4-11) [I-2403]			12	> 20000
Ac-[αAllylPro]D[tBuAla][B5(5)]NT[Aib]AFR[PyrS2][3Thi][Bta]Q-NH2 (staple 1-4, 4-11) [I-2407]			138	> 20000
